What was measured:
[1] = target: HA-tagged Atp1a3 T705A (mouse) (UniProt Q8VCE0); experiment: co-IP; HEK 293T cells co-transfected with HA-tagged Atp1a3 (WT, TA or TD) and YFP-β1 or YFP-β2; α3 precipitated with anti-HA beads (clone 3F10) 2 h at 4°C in IP buffer (20 mM Tris pH 8.0, 150 mM NaCl, 1% NP40, 10% glycerol); β detected with a GFP antibody; band densitometry normalised to WT
[2] = target: HA-tagged Atp1a3 T705D (mouse) (UniProt Q8VCE0); experiment: as above

| Substance | co-precipitated higher (complex-glycan) β band, relative intensity normalized to WT (normalized to WT) [1] | co-precipitated lower (intracellular) β band, relative intensity normalized to WT (normalized to WT) [1] | co-precipitated higher (complex-glycan) β band, relative intensity normalized to WT (normalized to WT) [2] | co-precipitated lower (intracellular) β band, relative intensity normalized to WT (normalized to WT) [2] |
| --- | --- | --- | --- | --- |
| YFP-tagged Na,K-ATPase β2 subunit (human) (from UniProt P14415 1-290) (natural protein) | 16.3 | 82.7 | 2.81 | 80.5 |
| YFP-tagged Na,K-ATPase β1 subunit (rat) (from UniProt P07340 1-304) (natural protein) | 58.3 | 101 | 6.59 | 95 |

— PMC6312924
